Five molecules from paper PMC9482650, “Quantitative fragmentomics allow affinity mapping of interactomes” (Nature Communications, 2022) can be followed below.

Some targets named below: CARD14, Q9BXL6; DVL2, O14641; MAGI3_4, Q5TCQ9; NHERF4_3, Q86UT5; PARD3B_2, Q8TEW8; PDZRN4_2, Q6ZMN7; SDCBP_1, O00560; TJP1_1, Q07157; RGS3, P49796-9.
Holding throughout (assay): holdup assay
What all share (set-up): key: below the threshold = too weak to quantify, mostly under pKd 3.1 to 4

In a further experiment the target is T1, INTU, Q9ULD6.
T1 sequence (Q9ULD6 180-273, limits assumed, looked up): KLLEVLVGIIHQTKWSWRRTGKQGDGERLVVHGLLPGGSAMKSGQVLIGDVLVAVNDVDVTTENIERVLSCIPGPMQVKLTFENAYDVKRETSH

The target of the next experiment is T2, LNX2_4, Q8N448.
T2 sequence (Q8N448 595-690, limits assumed, looked up): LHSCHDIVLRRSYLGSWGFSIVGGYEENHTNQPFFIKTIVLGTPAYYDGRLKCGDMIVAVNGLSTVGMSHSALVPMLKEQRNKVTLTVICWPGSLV

A further experiment addresses T3, MPDZ_13, O75970.
T3 sequence (O75970 1982-2070, limits assumed, looked up): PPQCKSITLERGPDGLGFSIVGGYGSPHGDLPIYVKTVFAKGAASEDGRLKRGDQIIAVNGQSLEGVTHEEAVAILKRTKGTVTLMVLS

The next experiment deals with T4, MPDZ_3, O75970.
T4 sequence (O75970 372-473, limits assumed, looked up): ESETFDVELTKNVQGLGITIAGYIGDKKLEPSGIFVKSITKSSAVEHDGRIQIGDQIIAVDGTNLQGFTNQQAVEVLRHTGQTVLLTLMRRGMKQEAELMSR

In the next experiment the target is T5, MPDZ_6, O75970.
T5 sequence (O75970 1003-1099, limits assumed, looked up): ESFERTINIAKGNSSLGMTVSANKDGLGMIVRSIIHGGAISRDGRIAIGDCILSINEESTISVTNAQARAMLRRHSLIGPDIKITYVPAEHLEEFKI

A further experiment addresses T6, MPP5, Q8N3R9.
T6 sequence (Q8N3R9 251-346, limits assumed, looked up): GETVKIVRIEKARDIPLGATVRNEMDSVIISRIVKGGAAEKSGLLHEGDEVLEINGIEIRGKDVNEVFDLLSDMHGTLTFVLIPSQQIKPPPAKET

For another experiment, the target named is T7, PARD6G, Q9BYG4.
T7 sequence (Q9BYG4 153-261, limits assumed, looked up): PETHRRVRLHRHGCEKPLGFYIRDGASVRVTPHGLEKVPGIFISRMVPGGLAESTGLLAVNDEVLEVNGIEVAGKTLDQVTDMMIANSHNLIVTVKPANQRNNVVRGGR

The target in the next experiment is T8, PDZD4, Q76G19.
T8 sequence (Q76G19 125-224, limits assumed, looked up): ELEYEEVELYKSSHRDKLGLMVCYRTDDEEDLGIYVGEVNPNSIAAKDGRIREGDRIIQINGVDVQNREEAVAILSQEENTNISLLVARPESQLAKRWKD

A further experiment concerns the target T9, PDZD7_1, Q9H5P4.
T9 sequence (Q9H5P4 81-178, limits assumed, looked up): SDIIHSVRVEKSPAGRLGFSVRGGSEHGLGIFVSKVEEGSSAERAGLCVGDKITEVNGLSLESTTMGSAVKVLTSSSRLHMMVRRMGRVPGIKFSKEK

The target of a further experiment is T10, SYNPO2L, Q9H987.
T10 sequence (Q9H987 1-98, limits assumed, looked up): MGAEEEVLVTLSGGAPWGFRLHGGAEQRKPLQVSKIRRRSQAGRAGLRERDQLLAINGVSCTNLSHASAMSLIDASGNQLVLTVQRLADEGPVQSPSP

Setting [1] is: plain residues with an end cap or a label only (N-terminal biotin on a linker: ttds).
Where [2] appears, read: plain residues with an end cap or a label only (N-terminal biotin on a linker: none).

CARD14, Q9BXL6, sequence (Q9BXL6 558-663): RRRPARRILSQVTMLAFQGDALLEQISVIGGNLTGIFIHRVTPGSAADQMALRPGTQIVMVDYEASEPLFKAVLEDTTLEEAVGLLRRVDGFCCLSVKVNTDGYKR
TJP1_1, Q07157, sequence (Q07157 18-120): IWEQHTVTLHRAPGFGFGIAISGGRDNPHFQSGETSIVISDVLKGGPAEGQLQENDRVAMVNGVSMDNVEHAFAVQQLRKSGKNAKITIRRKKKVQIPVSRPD
PDZRN4_2, Q6ZMN7, sequence (Q6ZMN7 389-498): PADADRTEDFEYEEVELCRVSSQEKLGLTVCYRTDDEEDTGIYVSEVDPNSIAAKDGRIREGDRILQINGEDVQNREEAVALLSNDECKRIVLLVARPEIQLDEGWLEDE
MAGI3_4, Q5TCQ9, sequence (Q5TCQ9 716-815): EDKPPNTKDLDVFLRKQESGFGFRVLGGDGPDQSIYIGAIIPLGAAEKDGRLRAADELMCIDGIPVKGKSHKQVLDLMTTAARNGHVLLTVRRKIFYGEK
DVL2, O14641, sequence (O14641 260-359): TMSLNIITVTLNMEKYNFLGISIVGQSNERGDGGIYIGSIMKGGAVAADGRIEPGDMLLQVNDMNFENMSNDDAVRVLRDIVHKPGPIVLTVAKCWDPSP
PARD3B_2, Q8TEW8, sequence (Q8TEW8 376-471): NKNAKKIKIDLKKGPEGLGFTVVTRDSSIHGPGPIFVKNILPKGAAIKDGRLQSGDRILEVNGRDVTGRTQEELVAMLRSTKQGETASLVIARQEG
NHERF4_3, Q86UT5, sequence (Q86UT5 325-412): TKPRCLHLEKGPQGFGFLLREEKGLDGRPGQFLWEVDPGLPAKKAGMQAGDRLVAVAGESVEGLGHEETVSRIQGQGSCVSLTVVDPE
SDCBP_1, O00560, sequence (O00560 111-198): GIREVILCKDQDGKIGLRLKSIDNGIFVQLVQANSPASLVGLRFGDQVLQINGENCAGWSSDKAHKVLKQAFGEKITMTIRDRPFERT
RGS3, P49796-9, sequence (P49796 other isoform, or with tags, fused parts or gaps): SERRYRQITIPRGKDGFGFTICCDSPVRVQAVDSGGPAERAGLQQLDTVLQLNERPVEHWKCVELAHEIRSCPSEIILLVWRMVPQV

Consider TGDTLEKFVEGL [CBP, Q92793], for which the pKd (in general, −log10 of the Kd, conventionally taken in molar units) with CARD14, Q9BXL6 (setting [1]) is “below the threshold”; with DVL2, O14641 (setting [1]), “below the threshold”; with INTU, Q9ULD6 (setting [1]) it was “below the threshold”; with LNX2_4, Q8N448 (setting [1]) it was “below the threshold”; with MAGI3_4, Q5TCQ9 (setting [1]) it was “below the threshold”; in the experiment with MPDZ_13, O75970 (setting [1]), “below the threshold”. Also, the negative-log Kd (pKd) is 4.11 in the experiment with MPDZ_3, O75970 (setting [1]); “below the threshold” in the experiment with MPDZ_6, O75970 (setting [1]); “below the threshold” with MPP5, Q8N3R9 (setting [1]); 3.86 in the experiment with NHERF4_3, Q86UT5 (setting [1]); 3.9 with PARD3B_2, Q8TEW8 (setting [1]); 3.82 in the experiment with PARD6G, Q9BYG4 (setting [1]). Moreover, the pKd result in the experiment with PDZD4, Q76G19 (setting [1]) is listed as “below the threshold”; with PDZD7_1, Q9H5P4 (setting [1]), “below the threshold”; in the experiment with PDZRN4_2, Q6ZMN7 (setting [1]), “below the threshold”; with SDCBP_1, O00560 (setting [1]), “below the threshold”; in the experiment with SYNPO2L, Q9H987 (setting [1]) it was “below the threshold”; with TJP1_1, Q07157 (setting [1]), “below the threshold”.

In the case of RRVRKLPSTTL [RPS6KA1, Q15418], the pKd entry is “below the threshold” in the experiment with CARD14, Q9BXL6 (setting [1]); “below the threshold” in the experiment with DVL2, O14641 (setting [1]); “below the threshold” in the experiment with INTU, Q9ULD6 (setting [1]); “below the threshold” in the experiment with LNX2_4, Q8N448 (setting [1]); 3.59 in the experiment with MAGI3_4, Q5TCQ9 (setting [1]); “below the threshold” with MPDZ_13, O75970 (setting [1]). Moreover, the negative logarithm of the Kd (pKd) with MPDZ_3, O75970 (setting [1]) was 3.81; with MPDZ_6, O75970 (setting [1]) it was “below the threshold”; in the experiment with MPP5, Q8N3R9 (setting [1]) it was “below the threshold”; in the experiment with NHERF4_3, Q86UT5 (setting [1]), “below the threshold”; with PARD3B_2, Q8TEW8 (setting [1]), “below the threshold”; with PARD6G, Q9BYG4 (setting [1]) it was “below the threshold”. In addition, the pKd result with PDZD4, Q76G19 (setting [1]) is reported as “below the threshold”; in the experiment with PDZD7_1, Q9H5P4 (setting [1]) it was “below the threshold”; with PDZRN4_2, Q6ZMN7 (setting [1]) it was “below the threshold”; in the experiment with RGS3, P49796-9 (setting [1]), “below the threshold”; in the experiment with SDCBP_1, O00560 (setting [1]), “below the threshold”; with SYNPO2L, Q9H987 (setting [1]), “below the threshold”. Moreover, in the experiment with TJP1_1, Q07157 (setting [1]), the negative logarithm of the Kd (pKd) result was “below the threshold”.

For the molecule DSKPPLPPDEWV [MERS-E, K9N5R3], the pKd result with CARD14, Q9BXL6 (setting [2]) is “below the threshold”; with DVL2, O14641 (setting [2]), “below the threshold”; in the experiment with INTU, Q9ULD6 (setting [2]), “below the threshold”; with LNX2_4, Q8N448 (setting [2]), 3.73; with MAGI3_4, Q5TCQ9 (setting [2]), “below the threshold”; with MPDZ_13, O75970 (setting [2]) it was “below the threshold”. Besides, the negative logarithm of the Kd (pKd) result with MPDZ_3, O75970 (setting [2]) was “below the threshold”; in the experiment with MPDZ_6, O75970 (setting [2]), “below the threshold”; in the experiment with MPP5, Q8N3R9 (setting [2]), 4.03; in the experiment with NHERF4_3, Q86UT5 (setting [2]) it was “below the threshold”; with PARD3B_2, Q8TEW8 (setting [2]), “below the threshold”; with PARD6G, Q9BYG4 (setting [2]), “below the threshold”. Further, the pKd entry was “below the threshold” with PDZD4, Q76G19 (setting [2]); “below the threshold” in the experiment with PDZD7_1, Q9H5P4 (setting [2]); 3.75 with PDZRN4_2, Q6ZMN7 (setting [2]); 4.67 with RGS3, P49796-9 (setting [2]); 4.12 with SDCBP_1, O00560 (setting [2]); 4.16 in the experiment with SYNPO2L, Q9H987 (setting [2]). Also, the negative logarithm of the Kd (pKd) result with TJP1_1, Q07157 (setting [2]) was “below the threshold”.

As to SEKHFRETEV [HTLV1-TAX1, P03409], the pKd entry is “below the threshold” with CARD14, Q9BXL6 (setting [1]); “below the threshold” in the experiment with DVL2, O14641 (setting [1]); 3.8 in the experiment with INTU, Q9ULD6 (setting [1]); “below the threshold” with LNX2_4, Q8N448 (setting [1]); 3.79 with MAGI3_4, Q5TCQ9 (setting [1]); 4.77 in the experiment with MPDZ_13, O75970 (setting [1]). For the same molecule, the negative logarithm of the Kd (pKd) is 3.92 with MPDZ_3, O75970 (setting [1]); “below the threshold” with MPDZ_6, O75970 (setting [1]); “below the threshold” with MPP5, Q8N3R9 (setting [1]); 3.83 in the experiment with NHERF4_3, Q86UT5 (setting [1]); 3.97 in the experiment with PARD3B_2, Q8TEW8 (setting [1]); 3.93 in the experiment with PARD6G, Q9BYG4 (setting [1]). The negative-log Kd (pKd) result is “below the threshold” in the experiment with PDZD4, Q76G19 (setting [1]); 3.85 with PDZD7_1, Q9H5P4 (setting [1]); “below the threshold” with PDZRN4_2, Q6ZMN7 (setting [1]); “below the threshold” with RGS3, P49796-9 (setting [1]); “below the threshold” with SDCBP_1, O00560 (setting [1]); “below the threshold” with SYNPO2L, Q9H987 (setting [1]). In addition, in the experiment with TJP1_1, Q07157 (setting [1]), the negative-log Kd (pKd) result was “below the threshold”.

On to DEDQHTQITKV [PTEN, P60484], for which the pKd entry with CARD14, Q9BXL6 (setting [1]) is listed as “below the threshold”; in the experiment with DVL2, O14641 (setting [1]), “below the threshold”; with INTU, Q9ULD6 (setting [1]), “below the threshold”; with LNX2_4, Q8N448 (setting [1]), “below the threshold”; in the experiment with MAGI3_4, Q5TCQ9 (setting [1]) it was “below the threshold”; in the experiment with MPDZ_3, O75970 (setting [1]), “below the threshold”. The pKd entry with MPDZ_6, O75970 (setting [1]) was “below the threshold”; with MPP5, Q8N3R9 (setting [1]), “below the threshold”; with NHERF4_3, Q86UT5 (setting [1]) it was “below the threshold”; with PARD3B_2, Q8TEW8 (setting [1]), “below the threshold”; with PARD6G, Q9BYG4 (setting [1]), “below the threshold”; with PDZD4, Q76G19 (setting [1]) it was “below the threshold”. The negative logarithm of the Kd (pKd) result with PDZD7_1, Q9H5P4 (setting [1]) is “below the threshold”; with PDZRN4_2, Q6ZMN7 (setting [1]), “below the threshold”; with SDCBP_1, O00560 (setting [1]) it was “below the threshold”; with SYNPO2L, Q9H987 (setting [1]) it was “below the threshold”; with TJP1_1, Q07157 (setting [1]) it was 3.58.
